Data taken from patent US20140286983A1.

Tests used:
[1] = target: DENV-1 VLP mutant E311K (Dengue virus serotype 1 strain (56)BC94/95; C-terminal 20% Japanese encephalitis virus)
[2] = target: DENV-1 VLP mutant G106R (Dengue virus serotype 1 strain (56)BC94/95; C-terminal 20% Japanese encephalitis virus)
[3] = target: DENV-1 VLP mutant G106RL107D (Dengue virus serotype 1 strain (56)BC94/95; C-terminal 20% Japanese encephalitis virus)
[4] = target: DENV-1 VLP mutant G106RL107DK310DE311KP364Q (pVD1-CRR VLP antigen) (Dengue virus serotype 1 strain (56)BC94/95; C-terminal 20% Japanese encephalitis virus)
[5] = target: DENV-1 VLP mutant K310D (Dengue virus serotype 1 strain (56)BC94/95; C-terminal 20% Japanese encephalitis virus)
[6] = target: DENV-1 VLP mutant K310DE311KP364Q (Dengue virus serotype 1 strain (56)BC94/95; C-terminal 20% Japanese encephalitis virus)
[7] = target: DENV-1 VLP mutant L107D (Dengue virus serotype 1 strain (56)BC94/95; C-terminal 20% Japanese encephalitis virus)
[8] = target: DENV-1 VLP mutant P364Q (Dengue virus serotype 1 strain (56)BC94/95; C-terminal 20% Japanese encephalitis virus)
[9] = target: DENV-1 virus (strain 56BC94/95) (Dengue virus serotype 1 strain 56BC94/95); experiment: cell-based or functional assay
[10] = target: DENV-2 virus (strain 16681) (Dengue virus serotype 2 strain 16681) (UniProt P29990); experiment: cell-based or functional assay
[11] = target: DENV-3 virus (strain 116RC1396) (Dengue virus serotype 3 strain 116RC1396); experiment: cell-based or functional assay
[12] = target: DENV-4 virus (strain 130) (Dengue virus serotype 4 strain 130); experiment: cell-based or functional assay

Work on MAb 6B6C-1 (antibody) yielded a percent of remaining reactivity compared to WT [1] of 100%, a percent of remaining reactivity compared to WT [2] of 12.5% and a percent of remaining reactivity compared to WT [3] of 0.8%. The percent of remaining reactivity compared to WT [4] was 3%, the percent of remaining reactivity compared to WT [5] was 100% and the percent of remaining reactivity compared to WT [6] was 50%. It also gave a percent of remaining reactivity compared to WT [7] of 50% and a percent of remaining reactivity compared to WT [8] of 100%.
With MAb 4G2 (antibody) the percent of remaining reactivity compared to WT [1] was 100%, the percent of remaining reactivity compared to WT [2] was < 0.1% and the percent of remaining reactivity compared to WT [3] was < 0.1%. For the same substance, the percent of remaining reactivity compared to WT [4] was < 0.1%, the percent of remaining reactivity compared to WT [5] was < 0.1% and the percent of remaining reactivity compared to WT [6] was 100%. For the same substance, the percent of remaining reactivity compared to WT [7] was < 0.1% and the percent of remaining reactivity compared to WT [8] was < 0.1%.
Work on MAb 1A1D-2 (antibody) yielded a percent of remaining reactivity compared to WT [1] of 50%, a percent of remaining reactivity compared to WT [2] of 25% and a percent of remaining reactivity compared to WT [3] of 100%. The percent of remaining reactivity compared to WT [4] was < 0.1%, the percent of remaining reactivity compared to WT [5] was 1.5% and the percent of remaining reactivity compared to WT [6] was < 0.8%. The percent of remaining reactivity compared to WT [7] was 100%, the percent of remaining reactivity compared to WT [8] was 100% and the Nt50 (µg/mL), FRµNT [9] was 1.68 µg/mL. The Nt50 (µg/mL), FRµNT [10] was 0.46 µg/mL, the Nt50 (µg/mL), FRµNT [11] was 1.26 µg/mL and the Nt50 (µg/mL), FRµNT [12] was > 20 µg/mL.
For MAb 3H5 (antibody), the Nt50 (µg/mL), FRµNT [9] was > 20 µg/mL and the Nt50 (µg/mL), FRµNT [10] was 0.15 µg/mL.
